Assay results published in article PMC11696893, “Enzymatic synthesis of reactive RNA probes containing squaramate-linked cytidine or adenosine for bioconjugations and cross-linking with lysine-containing peptides and proteins”.

How the values were obtained:
[1] = target: HIV reverse transcriptase (HIV-rt) (HIV, UniProt P04585;P04585 588-1147;588-1027); conditions: protein: recombinant; copies: 1;1; label: radioactive
[2] = target: T7 RNA polymerase (bacteriophage T7, UniProt P00573 1-883); conditions: label: radioactive
[3] = target: JEV NS5 (Japanese encephalitis virus, UniProt P27395 2528-3432); test: EMSA; conditions: protein: recombinant; label: radioactive
[4] = target: YFV NS5 (Yellow fever virus, UniProt P03314 2507-3411); test: EMSA; conditions: protein: recombinant; label: radioactive
[5] = target: SARS-CoV-2 nucleoprotein (SC_NP) (SARS-CoV-2, UniProt P0DTC9 1-419); test: EMSA; conditions: protein: recombinant; chain copies: 2; label: radioactive

GAUACUAAGGGAAUAAAUUGAGAGAGAUAAAUUUAU (ssRNA, C5 = 5-(ethoxysquaramate-linked) cytidine (CESQ)) [36_vRNA_1gCESQ]
binding result [1]: binds | binding result [2]: no binding | binding result [3]: binds | binding result [4]: binds | binding result [5]: binds
